# Assay results: PMC10396963, “Fibril formation and ordering of disordered FUS LC driven by hydrophobic interactions” (Nature Chemistry, 2023)
# B1: FUS low-complexity domain (FUS LC, 1–163 amino acids) (domain or fragment, human, UniProt P35637 1-163, looked up)
# chain: MASNDYTQQATQSYGAYPTQPGQGYSQQSSQPYGQQSYSGYSQSTDTSGYGQSSYSSYGQSQNTGYGTQSTPQGYGSTGGYGSSQSSQSSYGQQSSYPGYGQQPAPSSTSGSYGSSSQSSSYGQPQSGSYSQQPSYGGQQQSYGQQQSYNPPQGYGQQNQYNS
# notes: Human FUS (fused in sarcoma), N-terminal QGSY-rich low-complexity domain, amino-acid residues 1-163; For FRAP 5% of the protein carried Cy3 (NHS ester); the AFM and BAM samples were unlabelled; also called fused in sarcoma low-complexity domain; wild-type FUS LC; source: E. coli, purified (solubilised in 8 M urea, Ni-NTA, cleaved with tobacco etch virus protease, exchanged to CAPS pH 11)
# Molecular target: the molecule itself
# Test: atomic force microscopy; film formed from 1.5 uM FUS LC at the air/PBS interface (pH 7.4), 5 h, deposited on a Si wafer and dried; 20 ± 1 °C
protein,measurement,value
B1,binding result,binds
